{"source": "patent US20070154954A1", "about": "“Fluorescence polarization assay” (TRANSTECH PHARMA, INC., priority 2004, published 2007)", "molecules": {"B1": {"name": "unlabeled S100b (ligand)", "chain": "MSELEKAMVALIDVFHQYSGREGDKHKLKKSELKELINNELSHFLEEIKEQEVVDKVMETLDNDGDGECDFQEFMAFVAMVTTACHEFFEHE"}}, "key": {"recombinant human sRAGE [1]": {"target": "recombinant human sRAGE (Homo sapiens, UniProt Q15109)", "sequence (Q15109 23-339)": "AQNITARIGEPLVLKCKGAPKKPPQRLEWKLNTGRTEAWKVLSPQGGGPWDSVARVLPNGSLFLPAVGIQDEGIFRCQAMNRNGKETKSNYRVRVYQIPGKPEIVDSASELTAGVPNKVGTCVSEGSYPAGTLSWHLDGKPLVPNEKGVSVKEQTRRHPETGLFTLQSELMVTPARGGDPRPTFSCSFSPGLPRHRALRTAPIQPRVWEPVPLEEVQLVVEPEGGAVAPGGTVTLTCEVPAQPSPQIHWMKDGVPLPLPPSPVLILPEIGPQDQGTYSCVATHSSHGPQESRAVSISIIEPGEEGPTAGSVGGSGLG", "test": "Fluorescence polarization competition assay: displacement of fluorescent amyloid beta (1-40) from sRAGE", "conditions": "read-out: EC50 for competing with fluoresceinated amyloid beta (1-40) for binding to sRAGE, unlabeled ligand, sRAGE 40 nM, fluorescent amyloid beta (1-40) 50 nM, 37° C. 1 hour, FIG. 4, mean of four measurements", "protocol": "(§1) Once dissolved, the peptide is diluted with phosphate-buffered saline (calcium-free) to a concentration of 1 mg/ml and allowed to incubate at 37° C. for 24-48 hours.\nThe complex was incubated at 37° C. for 1 hour and then the milli-polarization (mP) value was read using an Envision plate reader (Perkin Ekmer). In some cases, depending on the purity of the human sRAGE, 0.1% bovine serum albumin (BSA) or 0.05% of the detergent TWEEN 20 may be added to the phospahte buffered saline to reduce background binding of the sRAGE to the assay well."}, "recombinant human sRAGE [2]": {"target": "T1, recombinant human sRAGE (human, UniProt Q15109 23-339)", "T1 construct": "also called soluble RAGE", "T1 sequence (Q15109 23-339 limits assumed)": "as the sequence (Q15109 23-339) above", "test": "fluorescence polarization, displacement of fluorescent amyloid beta (1-40) from sRAGE", "protocol": "as §1\nThe complex was incubated at 37° C. for 1 hour and then the milli-polarization (mP) value was read using an Envision plate reader (Perkin Ekmer)."}}, "note": "Read-outs that look alike come from different tables or passages of the source.", "data": [{"molecule": "s100b: unlabeled S100b, calgranulin-like RAGE ligand", "values": [{"measurement": "EC50", "setting": "recombinant human sRAGE [1]", "result": "~43", "unit": "nM"}, {"measurement": "EC50", "setting": "recombinant human sRAGE [1]; listed as S100b", "result": 43, "unit": "nM"}]}, {"molecule": "B1", "values": [{"measurement": "EC50", "setting": "recombinant human sRAGE [2]", "result": 43, "unit": "nM"}]}]}
